Reference: IntAct's records for PubMed 14596919

B1: Disabled homolog 2 (Mus musculus), P98078 (parent)
chain: MSNEVETSTTNGQPDQQAAPKAPSKKEKKKGSEKTDEYLLARFKGDGVKYKAKLIGIDDVPDARGDKMSQDSMMKLKGMAAAGRSQGQHKQRIWVNISLSGIKIIDEKTGVIEHEHPVNKISFIARDVTDNRAFGYVCGGEGQHQFFAIKTGQQAEPLVVDLKDLFQVIYNVKKKEEDKKKVEEANKAEENGSEALMTLDDQANKLKLGVDQMDLFGDMSTPPDLNSPTESKDILLVDLNSEIDTNQNSLRENPFLTNGVTSCSLPRPKPQASFLPENAFSANLNFFPTPNPDPFRDDPFAQPDQSAPSSFDSLTSPDQKKASLSSSSTPQSKGPLNGDTDYFGQQFDQLSNRTGKPEAQGGPWPYPSSQTQQAVRTQNGVSEREQNGFHIKSSPNPFVGSPPKGLSVPNGVKQDLESSVQSSAHDSIAIIPPPQSTKPGRGRRTAKSSANDLLASDIFASEPPGQMSPTGQPAVPQSNFLDLFKGNAPAPVGPLVGLGTVPVTPPQAGPWTPVVYSPSTTVVPGAIISGQPPSFRQPLVFGTTPAVQVWNQSPSFATPASPPPPTVWCPTTSVAPNAWSSTSPLGNPFQSNNIFPPPTMSTQSSPQPMMSSVLATPPQPPPRNGPLKDIPSDAFTGLDPLGDKEVKEVKEMFKDFQLRQPPLVPSRKGETPPSGTSSAFSSYFNNKVGIPQEHVDHDDFDANQLLNKINEPPKPAPRQGVLLGTKSADNSLENPFSKGFSSSNPSVVSQPASSDPHRSPFGNPFA

Variants of: B1
Conditions: with sh3k1_human SH3KBP1, Q96B97
sh3k1_human SH3KBP1, Q96B97, sequence (Q96B97 whole entry): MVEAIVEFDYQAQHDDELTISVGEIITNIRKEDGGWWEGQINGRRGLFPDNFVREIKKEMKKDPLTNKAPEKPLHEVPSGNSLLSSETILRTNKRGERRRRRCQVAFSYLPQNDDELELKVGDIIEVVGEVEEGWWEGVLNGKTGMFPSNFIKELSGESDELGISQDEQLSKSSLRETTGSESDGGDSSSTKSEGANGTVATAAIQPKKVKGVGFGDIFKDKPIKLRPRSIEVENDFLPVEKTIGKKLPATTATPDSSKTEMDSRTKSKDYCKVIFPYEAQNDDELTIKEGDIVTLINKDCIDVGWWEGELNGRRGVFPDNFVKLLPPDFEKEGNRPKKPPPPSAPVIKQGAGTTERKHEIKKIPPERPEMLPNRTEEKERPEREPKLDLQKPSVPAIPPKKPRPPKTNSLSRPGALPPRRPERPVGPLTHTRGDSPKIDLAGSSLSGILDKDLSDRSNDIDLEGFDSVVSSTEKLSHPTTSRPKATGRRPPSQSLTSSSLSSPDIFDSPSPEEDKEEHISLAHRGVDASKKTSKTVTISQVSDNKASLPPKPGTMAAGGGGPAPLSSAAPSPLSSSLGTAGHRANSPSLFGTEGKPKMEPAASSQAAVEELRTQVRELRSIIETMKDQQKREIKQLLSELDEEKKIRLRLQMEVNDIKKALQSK

Variant | effect of a mutation on the interaction
R718A | disrupting interaction

Variants of: B1
Conditions: with sh3k1_human SH3KBP1, Q96B97
Remark: another data set of the same source

Variant | effect of a mutation on the interaction
R718A | decreasing interaction
